Molecular target: T1, GC-C receptor (Homo sapiens, UniProt P25092)
T1 construct: production of intracellular cGMP using cultured human colon carcinoma T84 cells; endogenous in cells; host or cells: T84 human colon carcinoma cells
Assay: production of intracellular cGMP in cultured human colon carcinoma T84 cells (cGMP ELISA)
Type: cell-based
Details: intracellular cGMP by ELISA kit, compared with synthetic human uroguanylin, FIG. 8
Description: The ability of polypeptides, variant polypeptides and other compounds to bind to and activate the intestinal GC-C receptor can be tested using the T84 human colon carcinoma cell line (American Type Culture Collection (Bethesda, Md.).
Briefly, cells are grown to confluency in 24-well culture plates with a 1:1 mixture of Ham's F12 medium and Dulbecco's modified Eagle's medium (DMEM), supplemented with 5% fetal calf serum and are used at between passages 54 and 60.
Monolayers of T84 cells in 24-well plates are washed twice with 1 ml/well DMEM, then incubated at 37° C. for 10 min with 0.45 ml DMEM containing 1 mM isobutylmethylxanthine (IBMX), a cyclic nucleotide phosphodiesterase inhibitor. Test polypeptides (50Tl) are then added and incubated for 30 minutes at 37° C. The media is aspirated and the reaction is terminated by the addition of ice cold 0.5 ml of 0.1N HCl. […] Cyclic GMP is measured by EIA according to procedures outlined in the Cayman Chemical Cyclic GMP EIA kit.
The activity of the mature peptide was evaluated by the production of intracellular cGMP using cultured human colon carcinoma T84 cells, as described by Currie et al. (Pro. Natl. Acad. Sci. USA., 89:947-951, 1992). cGMP levels were subsequently measured using a cGMP ELISA kit (Cayman Chemical, Ann Arbor, Mich.) according to the manufacturer's protocol. […]

T1 sequence (P25092 24-1073): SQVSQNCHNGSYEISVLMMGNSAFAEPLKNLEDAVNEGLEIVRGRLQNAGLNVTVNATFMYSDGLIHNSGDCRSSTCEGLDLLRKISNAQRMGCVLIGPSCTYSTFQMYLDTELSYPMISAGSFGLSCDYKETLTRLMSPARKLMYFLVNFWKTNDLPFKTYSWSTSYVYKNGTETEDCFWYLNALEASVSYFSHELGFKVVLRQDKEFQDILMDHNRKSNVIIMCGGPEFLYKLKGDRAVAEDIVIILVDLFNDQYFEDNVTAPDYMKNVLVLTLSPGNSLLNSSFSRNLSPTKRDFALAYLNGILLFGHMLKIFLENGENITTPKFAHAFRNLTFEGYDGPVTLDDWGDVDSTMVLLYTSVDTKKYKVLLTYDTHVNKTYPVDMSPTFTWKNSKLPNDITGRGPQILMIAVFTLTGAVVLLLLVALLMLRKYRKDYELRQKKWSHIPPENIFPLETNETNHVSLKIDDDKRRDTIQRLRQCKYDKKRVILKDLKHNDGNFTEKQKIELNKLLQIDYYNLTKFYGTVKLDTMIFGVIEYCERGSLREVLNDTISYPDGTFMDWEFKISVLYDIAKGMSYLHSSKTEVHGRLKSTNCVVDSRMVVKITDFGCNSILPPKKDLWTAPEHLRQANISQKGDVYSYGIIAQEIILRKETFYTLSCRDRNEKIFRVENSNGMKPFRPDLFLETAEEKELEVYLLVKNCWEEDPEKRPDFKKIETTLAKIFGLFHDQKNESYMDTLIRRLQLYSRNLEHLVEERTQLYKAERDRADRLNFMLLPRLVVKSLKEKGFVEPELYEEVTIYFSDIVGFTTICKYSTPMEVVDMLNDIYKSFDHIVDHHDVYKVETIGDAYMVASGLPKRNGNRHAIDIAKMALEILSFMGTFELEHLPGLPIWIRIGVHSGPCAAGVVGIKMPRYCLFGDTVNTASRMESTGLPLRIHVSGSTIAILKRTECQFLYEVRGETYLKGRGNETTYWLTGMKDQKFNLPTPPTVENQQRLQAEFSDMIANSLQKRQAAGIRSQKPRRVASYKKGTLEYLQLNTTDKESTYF

NDDCELCVNVACTGCL [mature UGN peptide]
cGMP levels produced: comparable to those levels produced using synthetic human UGN

Reference: patent US20110306125A1, “Protein Expression Methods” (Ironwood Pharmaceuticals, Inc., priority 2008, published 2011)
